In PMC10397247:
Each block holds one binder with its values, some of them ahead of it.

Assays:
[1] = target: T1, 4H2729-AA; assay: two-hybrid library CCmax; settings: mean of both orientations;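 further: natural log of median RNA to DNA barcode read ratio; higher means stronger binding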
T1 chain: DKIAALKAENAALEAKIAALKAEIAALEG

[2] = target: T2, 4H993-AA; assay: two-hybrid library CCmax; settings: mean of both orientations;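 further: natural log of median RNA to DNA barcode read ratio; higher means stronger binding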
T2 chain: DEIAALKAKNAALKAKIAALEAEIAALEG

[3] = target: T3, 4H335-AA; assay: two-hybrid library CCmax; settings: mean of both orientations;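 further: natural log of median RNA to DNA barcode read ratio; higher means stronger binding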
T3 chain: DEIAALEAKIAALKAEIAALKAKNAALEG

[4] = target: T4, 4H881-AA; assay: two-hybrid library CCmax; settings: mean of both orientations;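 further: natural log of median RNA to DNA barcode read ratio; higher means stronger binding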
T4 chain: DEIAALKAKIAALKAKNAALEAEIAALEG

[5] = target: T5, 4H3112-AA; assay: two-hybrid library CCmax; settings: mean of both orientations
T5 chain: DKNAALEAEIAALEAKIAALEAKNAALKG

[6] = target: T6, 4H2617-AA; assay: two-hybrid library CCmax; settings: mean of both orientations
T6 chain: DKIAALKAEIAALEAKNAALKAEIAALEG

[7] = target: T7, 4H3844-AA; assay: two-hybrid library CCmax; settings: mean of both orientations
T7 chain: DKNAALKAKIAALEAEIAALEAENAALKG

[8] = target: T8, 4H3921-AA; assay: two-hybrid library CCmax; settings: mean of both orientations
T8 chain: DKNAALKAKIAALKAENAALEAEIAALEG

[9] = target: T9, 4H2642-AA; assay: two-hybrid library CCmax; settings: mean of both orientations
T9 chain: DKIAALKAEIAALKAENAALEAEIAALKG

[10] = target: T10, 4H3606-AA; assay: two-hybrid library CCmax; settings: mean of both orientations
T10 chain: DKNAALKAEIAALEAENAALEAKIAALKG

[11] = target: T11, 4H717-AA; assay: two-hybrid library CCmax; settings: mean of both orientations
T11 chain: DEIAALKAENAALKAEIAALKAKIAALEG

[12] = target: T12, 4H794-AA; assay: two-hybrid library CCmax; settings: mean of both orientations
T12 chain: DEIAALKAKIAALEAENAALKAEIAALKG

[13] = target: T13, 4H780-AA; assay: two-hybrid library CCmax; settings: mean of both orientations
T13 chain: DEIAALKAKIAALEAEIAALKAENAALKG

[14] = target: T14, 4H2575-AA; assay: two-hybrid library CCmax; settings: mean of both orientations
T14 chain: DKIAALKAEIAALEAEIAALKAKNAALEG

[15] = target: T15, 4H48-AA; assay: two-hybrid library CCmax; settings: mean of both orientations
T15 chain: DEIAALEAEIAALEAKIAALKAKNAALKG

[16] = target: T16, 4H566-AA; assay: two-hybrid library CCmax; settings: mean of both orientations
T16 chain: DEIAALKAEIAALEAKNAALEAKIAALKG

[17] = target: T17, 4H678-AA; assay: two-hybrid library CCmax; settings: mean of both orientations
T17 chain: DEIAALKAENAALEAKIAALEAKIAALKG

[18] = target: T18, 4H317-AA; assay: two-hybrid library CCmax; settings: mean of both orientations
T18 chain: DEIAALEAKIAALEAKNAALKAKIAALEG

[19] = target: T19, 4H2944-AA; assay: two-hybrid library CCmax; settings: mean of both orientations
T19 chain: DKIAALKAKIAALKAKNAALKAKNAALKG

[20] = target: T20, 4H342-AA; assay: two-hybrid library CCmax; settings: mean of both orientations
T20 chain: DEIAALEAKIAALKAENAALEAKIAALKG

[21] = target: T21, 4H2837-AA; assay: two-hybrid library CCmax; settings: mean of both orientations
T21 chain: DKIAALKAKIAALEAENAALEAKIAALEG

[22] = target: T22, 4H429-AA; assay: two-hybrid library CCmax
T22 chain: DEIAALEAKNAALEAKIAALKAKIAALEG

[23] = target: T23, 4H906-AA; assay: two-hybrid library CCmax; settings: mean of both orientations
T23 chain: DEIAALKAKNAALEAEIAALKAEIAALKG

[24] = target: T24, 4H2754-AA; assay: two-hybrid library CCmax; settings: mean of both orientations
T24 chain: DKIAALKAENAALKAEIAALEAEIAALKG

[25] = target: T25, 4H605-AA; assay: two-hybrid library CCmax; settings: mean of both orientations
T25 chain: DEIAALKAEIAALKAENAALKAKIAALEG

[26] = target: T26, 4H2883-AA; assay: two-hybrid library CCmax; settings: mean of both orientations
T26 chain: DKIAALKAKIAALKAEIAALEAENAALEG

[27] = target: T27, 4H2505-AA; assay: two-hybrid library CCmax
T27 chain: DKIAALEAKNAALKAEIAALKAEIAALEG

[28] = target: T28, 4H3427-AA; assay: two-hybrid library CCmax; settings: mean of both orientations
T28 chain: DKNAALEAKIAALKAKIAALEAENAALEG

[29] = target: T29, 4H3343-AA; assay: two-hybrid library CCmax; settings: mean of both orientations
T29 chain: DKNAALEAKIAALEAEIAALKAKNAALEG

[30] = target: T30, 4H3655-AA; assay: two-hybrid library CCmax; settings: mean of both orientations
T30 chain: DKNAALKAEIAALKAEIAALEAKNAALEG

[31] = target: T31, 4H2949-AA; assay: two-hybrid library CCmax; settings: mean of both orientations
T31 chain: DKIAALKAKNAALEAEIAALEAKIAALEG

[32] = target: T32, 4H3627-AA; assay: two-hybrid library CCmax
T32 chain: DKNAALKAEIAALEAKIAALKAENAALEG

[33] = target: T33, 4H454-AA; assay: two-hybrid library CCmax; settings: mean of both orientations
T33 chain: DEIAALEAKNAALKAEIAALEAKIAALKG

[34] = target: T34, 4H619-bH; assay: two-hybrid library CCNG1
T34 chain: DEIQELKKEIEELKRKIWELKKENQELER

[35] = target: T35, 4H906-bH; assay: two-hybrid library CCNG1
T35 chain: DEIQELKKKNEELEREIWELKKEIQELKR

[36] = target: T36, 4H850-bH; assay: two-hybrid library CCNG1
T36 chain: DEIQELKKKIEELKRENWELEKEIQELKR

[37] = target: T37, 4H687-bN; assay: two-hybrid library CCNG1
T37 chain: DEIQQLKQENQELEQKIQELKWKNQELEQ

[38] = target: T38, 4H607-bN; assay: two-hybrid library CCNG1
T38 chain: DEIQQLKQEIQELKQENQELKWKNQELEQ

[39] = target: T39, 4H568-bN; assay: two-hybrid library CCNG1
T39 chain: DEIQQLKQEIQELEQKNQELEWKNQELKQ

[40] = target: T40, 4H883-bN; assay: two-hybrid library CCNG1
T40 chain: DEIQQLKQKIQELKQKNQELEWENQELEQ

[41] = target: T41, 4H72-bN; assay: two-hybrid library CCNG1
T41 chain: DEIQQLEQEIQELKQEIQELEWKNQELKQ

[42] = target: T42, 4H953-bN; assay: two-hybrid library CCNG1
T42 chain: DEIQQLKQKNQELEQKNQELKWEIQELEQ

[43] = target: T43, 4H967-bN; assay: two-hybrid library CCNG1
T43 chain: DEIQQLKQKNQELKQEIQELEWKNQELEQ

[44] = target: T44, 4H918-bN; assay: two-hybrid library CCNG1
T44 chain: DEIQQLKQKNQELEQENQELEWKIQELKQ

[45] = target: T45, 4H797-bN; assay: two-hybrid library CCNG1
T45 chain: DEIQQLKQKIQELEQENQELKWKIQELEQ

[46] = target: T46, 4H462-bN; assay: two-hybrid library CCNG1
T46 chain: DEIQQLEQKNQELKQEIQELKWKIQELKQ

[47] = target: T47, 4H477-bH; assay: two-hybrid library CCNG1
T47 chain: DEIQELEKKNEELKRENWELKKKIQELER

[48] = target: T48, 4H741-bH; assay: two-hybrid library CCNG1
T48 chain: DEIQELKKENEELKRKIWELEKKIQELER

[49] = target: T49, 4H492-bH; assay: two-hybrid library CCNG1
T49 chain: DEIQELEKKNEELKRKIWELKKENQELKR

[50] = target: T50, 4H40-bH; assay: two-hybrid library CCNG1
T50 chain: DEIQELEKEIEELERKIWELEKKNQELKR

Binder: DEIQQLEQKNQELKQEIQELKWKIQELKQ [4H462-bN]
interaction score [37]: -0.147 | interaction score [38]: 0.42 | interaction score [39]: 0.685 | interaction score [40]: -1.4 | interaction score [41]: -0.825 | interaction score [42]: -0.25 | interaction score [43]: -0.954 | interaction score [44]: -1.19 | interaction score [45]: -0.297 | interaction score [46]: -0.578

Binder: DEIQELEKEIEELERKIWELEKKNQELKR [4H40-bH]
interaction score [47]: -0.00296 | interaction score [48]: 0.646 | interaction score [49]: 0.0489 | interaction score [50]: -0.0343

Continued, values first:

interaction score [1]: 2.02 | interaction score [2]: -1.53 | interaction score [3]: -1.01 | interaction score [4]: -1.43 | interaction score [5]: -1.11 | interaction score [6]: -0.92 | interaction score [7]: -1.01 | interaction score [8]: -0.328 | interaction score [9]: -0.234 | interaction score [10]: 1.04 | interaction score [11]: -0.029 | interaction score [12]: -0.881 | interaction score [13]: -1.6 | interaction score [14]: -0.277 | interaction score [15]: 0.908 | interaction score [16]: -0.341 | interaction score [17]: 1.78 | interaction score [18]: -1.65 | interaction score [19]: -1.9 | interaction score [20]: 1.06 | interaction score [21]: 1.03 | interaction score [22]: 1.6 | interaction score [23]: 0.636 | interaction score [24]: 1.69 | interaction score [25]: -1.14 | interaction score [26]: -0.918 | interaction score [27]: 1.09 | interaction score [28]: -1.04 | interaction score [29]: -1.59 | interaction score [30]: -1.61 | interaction score [31]: 1.68 | interaction score [32]: -1.54 | interaction score [33]: 2.21
Binder: DKIAALEAKNAALKAEIAALKAEIAALEG [4H2505-AA]

interaction score [34]: 0.749 | interaction score [35]: -0.349 | interaction score [36]: 0.196
Binder: DEIQELKKEIEELKRKIWELKKENQELER [4H619-bH]
